Among the targets are MSK1 (h) (human) (UniProt O75582); Syk (h) (human) (UniProt P43405); Rsk2 (h) (human) (UniProt P51812); CDK3/cyclinE (h) (human) (UniProt Q00526).
Assay in all cases: cell-based or functional assay
A further assay has as its target T1, Flt3(D835Y) (h) (human) (UniProt P36888).
T1 sequence (looked up): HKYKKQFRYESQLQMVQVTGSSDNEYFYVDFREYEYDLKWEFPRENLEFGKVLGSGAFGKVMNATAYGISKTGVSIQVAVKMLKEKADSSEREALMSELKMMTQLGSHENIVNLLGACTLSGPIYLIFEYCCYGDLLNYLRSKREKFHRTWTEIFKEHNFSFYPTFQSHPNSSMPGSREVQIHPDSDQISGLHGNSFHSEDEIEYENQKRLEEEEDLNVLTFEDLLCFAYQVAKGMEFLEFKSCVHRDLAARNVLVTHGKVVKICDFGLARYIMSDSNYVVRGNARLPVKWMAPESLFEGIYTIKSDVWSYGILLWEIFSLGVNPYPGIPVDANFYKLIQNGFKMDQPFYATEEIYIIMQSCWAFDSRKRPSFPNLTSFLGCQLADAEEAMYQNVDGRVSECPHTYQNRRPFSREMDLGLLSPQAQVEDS

Another assay addresses T2, DCAMKL2 (h) (human) (UniProt Q8N568).
T2 sequence (looked up): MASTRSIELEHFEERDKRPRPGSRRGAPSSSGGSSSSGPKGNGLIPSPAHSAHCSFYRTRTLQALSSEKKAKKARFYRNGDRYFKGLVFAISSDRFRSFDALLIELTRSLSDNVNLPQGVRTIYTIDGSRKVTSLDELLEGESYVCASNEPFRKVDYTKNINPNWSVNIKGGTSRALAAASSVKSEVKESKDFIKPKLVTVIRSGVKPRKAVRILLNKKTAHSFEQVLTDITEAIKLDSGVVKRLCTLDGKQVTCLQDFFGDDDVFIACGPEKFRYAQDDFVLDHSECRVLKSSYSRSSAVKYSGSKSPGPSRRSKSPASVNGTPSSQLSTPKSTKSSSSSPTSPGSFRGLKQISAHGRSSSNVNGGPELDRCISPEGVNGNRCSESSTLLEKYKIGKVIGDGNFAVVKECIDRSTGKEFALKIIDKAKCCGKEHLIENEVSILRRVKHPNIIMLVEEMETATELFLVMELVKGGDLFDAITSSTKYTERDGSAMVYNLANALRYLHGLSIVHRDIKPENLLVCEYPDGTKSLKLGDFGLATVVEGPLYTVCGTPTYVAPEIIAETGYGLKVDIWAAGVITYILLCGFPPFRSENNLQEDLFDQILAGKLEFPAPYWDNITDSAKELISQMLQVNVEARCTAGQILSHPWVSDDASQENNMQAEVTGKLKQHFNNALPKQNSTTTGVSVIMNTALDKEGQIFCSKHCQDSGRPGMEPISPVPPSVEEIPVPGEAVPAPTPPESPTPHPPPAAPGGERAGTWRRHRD

The target of a further assay is T3, Itk (h) (human) (UniProt Q08881).
T3 sequence (looked up): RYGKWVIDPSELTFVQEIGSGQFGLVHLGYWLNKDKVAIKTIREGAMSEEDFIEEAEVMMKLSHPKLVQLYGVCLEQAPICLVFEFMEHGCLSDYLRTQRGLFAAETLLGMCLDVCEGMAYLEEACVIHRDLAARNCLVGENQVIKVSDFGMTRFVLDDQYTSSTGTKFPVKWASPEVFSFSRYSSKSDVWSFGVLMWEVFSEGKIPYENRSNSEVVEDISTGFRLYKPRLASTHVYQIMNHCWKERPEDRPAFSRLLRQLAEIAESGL

A further assay concerns the target T4, PDK1 (h) (human) (UniProt O15530).
T4 sequence (looked up): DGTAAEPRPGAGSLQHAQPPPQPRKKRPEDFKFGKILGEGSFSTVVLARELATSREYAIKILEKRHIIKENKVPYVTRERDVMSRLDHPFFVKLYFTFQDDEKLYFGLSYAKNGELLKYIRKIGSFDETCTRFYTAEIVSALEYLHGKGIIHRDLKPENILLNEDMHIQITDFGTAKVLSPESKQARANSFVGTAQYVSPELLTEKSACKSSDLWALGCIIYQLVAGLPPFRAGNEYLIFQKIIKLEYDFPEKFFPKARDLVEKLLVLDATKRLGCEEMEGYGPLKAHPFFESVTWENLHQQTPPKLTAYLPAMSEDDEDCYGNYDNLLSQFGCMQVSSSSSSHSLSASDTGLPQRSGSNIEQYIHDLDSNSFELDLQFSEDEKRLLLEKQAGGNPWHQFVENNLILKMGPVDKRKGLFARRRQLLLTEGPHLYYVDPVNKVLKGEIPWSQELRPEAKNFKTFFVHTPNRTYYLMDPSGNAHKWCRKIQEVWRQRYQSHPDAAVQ

For another assay, the target named is T5, Ret(V804M) (h) (human) (UniProt P07949).
T5 sequence (looked up): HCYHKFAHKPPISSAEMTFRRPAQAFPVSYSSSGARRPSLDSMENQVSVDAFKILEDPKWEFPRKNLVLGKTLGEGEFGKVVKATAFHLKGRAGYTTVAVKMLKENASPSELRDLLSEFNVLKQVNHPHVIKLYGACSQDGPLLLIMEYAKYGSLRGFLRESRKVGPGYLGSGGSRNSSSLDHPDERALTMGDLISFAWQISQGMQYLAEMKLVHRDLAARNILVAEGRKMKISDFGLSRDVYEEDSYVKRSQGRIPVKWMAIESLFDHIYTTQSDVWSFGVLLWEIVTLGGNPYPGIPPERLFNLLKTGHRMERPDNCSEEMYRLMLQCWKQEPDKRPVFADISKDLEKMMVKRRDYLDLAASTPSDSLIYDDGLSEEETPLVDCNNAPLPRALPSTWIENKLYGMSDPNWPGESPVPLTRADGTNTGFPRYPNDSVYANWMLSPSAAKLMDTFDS

Rsk2 (h) (human), sequence (P51812 whole entry): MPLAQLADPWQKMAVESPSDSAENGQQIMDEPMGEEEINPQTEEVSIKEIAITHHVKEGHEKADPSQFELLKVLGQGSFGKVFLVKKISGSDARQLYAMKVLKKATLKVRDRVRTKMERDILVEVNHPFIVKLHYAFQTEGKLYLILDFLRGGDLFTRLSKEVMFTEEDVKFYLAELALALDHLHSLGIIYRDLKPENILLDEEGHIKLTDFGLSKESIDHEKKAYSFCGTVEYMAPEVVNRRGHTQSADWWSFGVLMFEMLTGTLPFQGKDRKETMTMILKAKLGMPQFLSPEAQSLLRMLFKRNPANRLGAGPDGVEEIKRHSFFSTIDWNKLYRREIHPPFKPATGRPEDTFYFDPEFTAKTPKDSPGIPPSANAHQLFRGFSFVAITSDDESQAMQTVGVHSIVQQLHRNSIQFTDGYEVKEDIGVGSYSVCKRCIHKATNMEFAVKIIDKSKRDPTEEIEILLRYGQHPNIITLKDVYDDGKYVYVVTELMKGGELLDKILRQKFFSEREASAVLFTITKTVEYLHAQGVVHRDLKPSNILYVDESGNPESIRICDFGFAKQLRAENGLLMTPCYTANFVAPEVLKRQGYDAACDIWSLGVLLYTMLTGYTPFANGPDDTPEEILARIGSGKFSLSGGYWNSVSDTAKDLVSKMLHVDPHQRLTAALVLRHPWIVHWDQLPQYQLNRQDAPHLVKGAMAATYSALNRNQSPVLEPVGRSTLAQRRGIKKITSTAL

On to MMI-0300 (peptide), for which the % activity at 100 µM was 80% with Flt3(D835Y) (h) (human); 81% with DCAMKL2 (h) (human); 77% in the assay with Itk (h) (human); 135% in the assay with PDK1 (h) (human); 32% in the assay with MSK1 (h) (human); 95% with Ret(V804M) (h) (human). Besides, the % activity at 100 µM in the assay with Syk (h) (human) was found to be 24%; with Rsk2 (h) (human), 51%; with CDK3/cyclinE (h) (human), 94%.

(Values after patent publication US20160136234A1.)
